# Data taken from patent US20130267025A1.
# Key:
# [1] = target: V5-tagged Tctex-1 (V5-Tctex-1 fusion protein), expressed from pcDNA3.2/V5/GW/D-TOPO (human) (UniProt P63172); experiment: cell-based or functional assay
# [2] = target: endogenous Tctex-1 protein of PC3 human prostate cancer cells (human) (UniProt P63172); experiment: cell-based or functional assay
# endogenous Tctex-1 protein of PC3 human prostate cancer cells (human), sequence (P63172 whole entry): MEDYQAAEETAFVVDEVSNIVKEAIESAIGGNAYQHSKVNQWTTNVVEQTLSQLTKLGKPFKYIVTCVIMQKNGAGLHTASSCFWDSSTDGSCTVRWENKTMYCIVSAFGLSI
# V5-tagged Tctex-1 (V5-Tctex-1 fusion protein), expressed from pcDNA3.2/V5/GW/D-TOPO (human), sequence (P63172 whole entry, the tested form may be a part): as the sequence (P63172 whole entry) above
substance,measurement,setting,value
REIC/Dkk-3 protein overexpressed from adenovirus REIC/Dkk-3 (Ad-REIC) in PC3 cells (from UniProt Q9UBP4 22-350),"apoptosis incidence (Hoechst 33342) in PC3 cells treated with Ad-REIC, group treated with the Tctex-1 expression plasmid",[1],75%
same,"apoptosis incidence (Hoechst 33342) in PC3 cells treated with Ad-REIC, group treated with shRNA-Tctex-1",[2],15%
same,"apoptosis incidence (Hoechst 33342) in PC3 cells treated with Ad-REIC, group treated with the GFP plasmid",[2],30%
